T1: His-tagged Stx 2B-subunit (wild type) (enterohemorrhagic Escherichia coli O157:H7), P09386
T1 chain: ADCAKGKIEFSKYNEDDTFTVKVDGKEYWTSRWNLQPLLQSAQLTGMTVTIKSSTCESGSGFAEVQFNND


Target: T1, His-tagged Stx 2B-subunit (wild type) …

First: MAPPRRNRRA (modifications not checked) [(Met-Ala-PPRRNRR-Ala-AHA-)4-3Lys]
Second: MAPPPRRRRA (modifications not checked) [(Met-Ala-PPPRRRR-Ala-AHA-)4-3Lys]
The RUmax of the first is higher: 1350 AU for the first, 1250 AU for the second.

First: MAKRRNPRRA (modifications not checked) [(Met-Ala-KRRNPRR-Ala-AHA-)4-3Lys]
Second: MAFRRNRRNA (modifications not checked) [(Met-Ala-FRRNRRN-Ala-AHA-)4-3Lys]
The RUmax of the first is lower: 1290 AU for the first, 1490 AU for the second.

Source: patent US20090029864A1
